T1: human MICA*008 expressed on CHO cells (human, UniProt Q29983 24-331)
T1 construct: also called MICA allele 008
T1 chain: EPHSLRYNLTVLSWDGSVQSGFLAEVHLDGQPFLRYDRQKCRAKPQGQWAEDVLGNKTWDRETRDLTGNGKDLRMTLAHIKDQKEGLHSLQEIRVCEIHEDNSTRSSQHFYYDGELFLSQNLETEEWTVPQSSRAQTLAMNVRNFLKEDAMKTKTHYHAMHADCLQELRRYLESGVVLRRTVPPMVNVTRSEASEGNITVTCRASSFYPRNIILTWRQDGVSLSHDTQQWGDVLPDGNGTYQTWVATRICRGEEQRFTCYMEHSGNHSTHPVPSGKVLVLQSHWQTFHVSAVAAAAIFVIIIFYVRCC

T2: human MICA*010 expressed on CHO cells (human, UniProt Q29983 24-383)
T2 construct: also called MICA allele 010
T2 chain: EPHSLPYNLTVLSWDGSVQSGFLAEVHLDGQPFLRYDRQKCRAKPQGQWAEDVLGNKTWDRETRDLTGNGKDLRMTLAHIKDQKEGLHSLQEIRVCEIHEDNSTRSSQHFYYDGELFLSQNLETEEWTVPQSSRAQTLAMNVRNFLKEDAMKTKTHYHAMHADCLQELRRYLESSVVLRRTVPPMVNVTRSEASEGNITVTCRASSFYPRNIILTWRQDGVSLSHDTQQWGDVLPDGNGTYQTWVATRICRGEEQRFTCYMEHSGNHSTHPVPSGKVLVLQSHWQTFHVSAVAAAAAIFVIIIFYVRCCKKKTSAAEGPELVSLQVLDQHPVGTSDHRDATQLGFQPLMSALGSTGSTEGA

T3: recombinant soluble human MICA*009 antigen (human, UniProt Q29983 24-307)
T3 construct: also called huIMICA-his allele *009
T3 chain: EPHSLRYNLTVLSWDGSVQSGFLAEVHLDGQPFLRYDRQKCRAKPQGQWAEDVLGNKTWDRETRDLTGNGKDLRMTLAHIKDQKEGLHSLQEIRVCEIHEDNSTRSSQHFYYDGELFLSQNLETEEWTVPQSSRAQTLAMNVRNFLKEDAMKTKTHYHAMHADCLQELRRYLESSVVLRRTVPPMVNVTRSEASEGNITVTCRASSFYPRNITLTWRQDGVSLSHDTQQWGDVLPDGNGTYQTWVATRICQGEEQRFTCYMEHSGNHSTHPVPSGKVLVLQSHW

T4: recombinant soluble human MICA*004 antigen (human, UniProt Q29983 24-307)
T4 construct: also called huIMICA-his allele *004
T4 chain: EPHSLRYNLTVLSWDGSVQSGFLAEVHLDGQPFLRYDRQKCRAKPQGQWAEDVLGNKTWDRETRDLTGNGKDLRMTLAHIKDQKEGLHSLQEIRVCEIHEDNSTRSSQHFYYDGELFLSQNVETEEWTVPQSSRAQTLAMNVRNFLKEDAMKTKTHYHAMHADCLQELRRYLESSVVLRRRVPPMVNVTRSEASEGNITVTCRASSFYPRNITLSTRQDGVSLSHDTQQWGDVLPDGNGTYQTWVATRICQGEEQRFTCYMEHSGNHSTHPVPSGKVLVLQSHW

T5: recombinant soluble human MICA*002 antigen (human, UniProt Q29983 24-307)
T5 construct: also called huIMICA-his allele *002
T5 chain: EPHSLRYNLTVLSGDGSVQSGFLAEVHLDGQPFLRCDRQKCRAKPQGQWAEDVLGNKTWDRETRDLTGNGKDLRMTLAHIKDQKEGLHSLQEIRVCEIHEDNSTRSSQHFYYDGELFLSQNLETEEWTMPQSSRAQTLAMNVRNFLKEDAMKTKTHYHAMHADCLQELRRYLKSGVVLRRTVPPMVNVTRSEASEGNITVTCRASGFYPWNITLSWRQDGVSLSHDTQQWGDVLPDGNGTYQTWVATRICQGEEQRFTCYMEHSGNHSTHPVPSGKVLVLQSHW

T6: recombinant soluble human MICA*008 antigen (human, UniProt Q29983 24-307)
T6 construct: also called huIMICA-his allele *008; recombinant soluble MICA (allele 8)
T6 chain: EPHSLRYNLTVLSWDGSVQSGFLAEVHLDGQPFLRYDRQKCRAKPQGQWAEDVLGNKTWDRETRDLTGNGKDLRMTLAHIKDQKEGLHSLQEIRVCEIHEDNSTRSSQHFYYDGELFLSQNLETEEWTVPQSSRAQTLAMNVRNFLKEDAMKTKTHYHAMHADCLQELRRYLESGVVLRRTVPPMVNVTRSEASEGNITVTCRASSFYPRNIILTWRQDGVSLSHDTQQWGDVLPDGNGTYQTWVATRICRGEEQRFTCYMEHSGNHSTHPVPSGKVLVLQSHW


Columns and labels:
[1] = target: T7, cynomolgus monkey MICA/B clone #6 expressed on CHO cells (cynomolgus monkey); test: flow cytometry, transfected CHO cells
T7 construct: whole, on cells; also called cyno#6; CHO-cyno MICA clone #6

[2] = target: T8, cynomolgus monkey MICA/B clone #4 expressed on CHO cells (cynomolgus monkey); test: flow cytometry, transfected CHO cells
T8 construct: whole, on cells; also called cyno#4; CHO-cyno MICA clone #4

[3] = target: T1, human MICA*008 expressed on CHO cells; test: flow cytometry, transfected CHO cells
[4] = target: T2, human MICA*010 expressed on CHO cells; test: flow cytometry, transfected CHO cells
[5] = target: T3, recombinant soluble human MICA*009 …; test: SPR (Biacore 3000), antibody captured on Protein G chip, huMICA-his analyte; power of ten not given
Experimental: (§1) Kinetics and affinity of anti-MICA/B antibodies MICA.2, 19G6, 16A5, and 71C2 towards human MICA alleles (huIMICA-his allele *002, *004, *008, and *009) were also determined on a BIACORE 3000® instrument using the following conditions: [0571] Running Buffer: HES-EP running buffer [0572] Chip: CM5 Protein G Chip Fc1: Blank. Fc2-4: ˜200Rus [0573] Ab: 5 ug/mL, 10 uL @ 10 uL/min [0574] Ag binding: 5 min association, 7 min dissociation @ 25 uL/min, [0575] Regeneration: Glycine 1.7, 10 uL @ 100 uL/min followed by 60s wash by HES-EP

[6] = target: T4, recombinant soluble human MICA*004 …; test: as above
Experimental: as §1

[7] = target: T5, recombinant soluble human MICA*002 …; test: as above
Experimental: as §1

[8] = target: T6, recombinant soluble human MICA*008 …; test: as above
Experimental: as §1

EC50 [1] [nM]	EC50 [2] [nM]	EC50 [3] [nM]	EC50 [4] [nM]	koff [5] [s⁻¹]	koff [6] [s⁻¹]	koff [7] [s⁻¹]	koff [8] [s⁻¹]	Binder
4.01	1.97	2.14	6.91	0.0232	0.0284	0.0104	0.0246	MICA.2 (antibody, human IgG1, kappa, V domains shown, 3F5 variable regions on human IgG1f and human kappa constant regions, made in CHO-S cells; also called 3F5; recombinant antibody of 3F5) VH: EVQLVESGGGLVQPGGSLRLSCAASGFTFSTYSMNWVRQAPGKGLEWVSYISYRSRTIYYADSVKGRFTISRDNARNSLYLQMNSLRDEDTAVYYCARWGYGSGGFDYWGQGTLVTVSS VL: not shown
331	394	248	722					24G11 (antibody, V domains shown, also called MICA.54; 24G11 (MICA.54)) VH: EVQLVQSGAEVKKPGESLKISCKGSGYSFTNYWIGWVRQMPGKGLEWLGIIHPGDSYTRYSPSFQGQVTISADKSISTAYLQWSSLKASDTAIYYCAREGIAATPFDYWGQGTLVTVSS VL: EIVLTQSPATLSLSPGERATLSCRASQSVSSYLAWFQQKPGQAPRLLIYDASNRATGIPARFSGSGSGTDFTLTISSLEPEDFAVYYCQQRSNWPPTFGQGTKVEIK
22	1.08	9.23	18.5	2.15	2.28	8.14	1.87	19G6 (antibody, V domains shown, Hybridoma antibody from human IgG transgenic mice, parent of MICA.36; also called 19G6 mAb; hybridoma 19G6) VH: QVQLVESGGGVVQPGRSLRLSCAASGFTFSNYAMHWVRQAPGEGLEWVALIWYDGSNKFYGDSVKGRFTISRDNSKNTLYLQMNSLSAEDTAVYYCAREGSGHYWGQGTLVTVSS VL: AIQLTQSPSSLSASVGDRVTITCRASQGISSALAWYQQKPGKVPKSLIYDASSLESGVPSRFSGSGSGTDFTLTISSLQPEDFATYYCQQFNSYPITFGQGTRLEIK
232	23.4	10	80	0.0325	0.0303	0.0116	0.0109	71C2 (antibody, V domains shown, Hybridoma antibody) VH: EVQLVESGGGLVQPGRSLRLSCAASGFTFNNYAMHWVRQAPGKGLEWVSGITWNSDSIGYADSVKGRFTISRDNAKNSLYLQMNSLRAEDTALYYCAKDSVLLWFGGMDVWGQGTTVTVSS VL: not shown

Reference: US20220281980A1 (Bristol-Myers Squibb, published 2022)
